Test results as given in publication PMC3025077 (Peptides, 2010).

Columns and labels:
[1] = target: T1, human Y5 receptor (Homo sapiens, UniProt Q15761); conditions: uncompeted specific binding at 50 pM [125I]agonist as percent of the specific binding of [125I]hNPY; human Y5 in HEK293 cells; ± S.E.M.; SEM
T1 sequence (Q15761 1-445): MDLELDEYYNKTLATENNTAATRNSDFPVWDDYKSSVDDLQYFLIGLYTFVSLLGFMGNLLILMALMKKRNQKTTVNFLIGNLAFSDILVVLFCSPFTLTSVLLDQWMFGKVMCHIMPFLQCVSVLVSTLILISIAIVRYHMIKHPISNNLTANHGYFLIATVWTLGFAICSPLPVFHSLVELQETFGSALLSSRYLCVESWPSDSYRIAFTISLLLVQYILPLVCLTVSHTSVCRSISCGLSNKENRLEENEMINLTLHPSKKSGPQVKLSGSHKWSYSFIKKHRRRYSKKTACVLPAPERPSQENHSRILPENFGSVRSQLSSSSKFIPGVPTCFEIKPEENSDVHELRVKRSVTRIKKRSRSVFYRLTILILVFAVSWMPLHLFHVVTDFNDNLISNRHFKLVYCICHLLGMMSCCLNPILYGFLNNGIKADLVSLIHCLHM

[2] = system: hY1-CHO; experiment: Non-specific binding of agonists, saturation and time course, hY1-CHO; conditions: hyperbolic fit; 50 pM tracer at 100 nM unlabeled peptide over 3, 6, 10, 20 and 30 min at 25 °C

## human (Leu^31,Pro^34) peptide YY [LP-hPYY]
[1]
  % of NPY binding, Y5: 96.5 ±16%
[2]
  Half-period of equilibration of non-specific binding, hY1-CHO: 1.72 ± 0.11 min
